{"source": "paper PMC8184850", "about": "“Cryo-EM structure of TFIIH/Rad4–Rad23–Rad33 in damaged DNA opening in nucleotide excision repair” (Nature Communications, 2021)", "binders": {"B1": {"name": "Rad33 (natural protein, yeast)", "chain": "MSKSTNVSYERVELFENPKVPIEVEDEILEKYAESSLDHDMTVNELPRFFKDLQLEPTIWKLVRNEDVIIEGTDVIDFTKLVRCTCQLLILMNNLTVIDDLWSMLIRNCGRDVDFPQVALRDHVLSVKDLQKISNLIGADQSSGTIEMISCATDGKRLFMTYLDFGCVLGKLGYLKM", "notes": "Rad33 (CETN2 homologue), yeast; plasmid pETDuet-RAD33; also called yeast homologue of CETN2; source: E. coli Rosetta(DE3), purified (HisTrap, Q column)"}, "B2": {"name": "Tfb5 (natural protein, yeast, UniProt Q3E7C1 1-72, looked up)", "chain": "MARARKGALVQCDPSIKALILQIDAKMSDIVLEELDDTHLLVNPSKVEFVKHELNRLLSKNIYNPMDEEENQ", "notes": "Tfb5 (p8 homologue), subunit of yeast coreTFIIH; Stood in the assays as part of coreTFIIH; also called yeast homologue of p8; source: purified from yeast as a subunit of coreTFIIH"}}, "conditions_in_all_cases": "both partners purified", "key": {"[1]": {"target": "T1, Full-length Rad4–Rad23 complex (yeast, UniProt P14736 1-754; P32628 1-398)", "T1 construct": "Rad4 (XPC homologue), yeast; Rad23 (RAD23B homologue), yeast; also called Rad4–23; yeast homologue of XPC–RAD23B", "T1 sequence (looked up) 1": "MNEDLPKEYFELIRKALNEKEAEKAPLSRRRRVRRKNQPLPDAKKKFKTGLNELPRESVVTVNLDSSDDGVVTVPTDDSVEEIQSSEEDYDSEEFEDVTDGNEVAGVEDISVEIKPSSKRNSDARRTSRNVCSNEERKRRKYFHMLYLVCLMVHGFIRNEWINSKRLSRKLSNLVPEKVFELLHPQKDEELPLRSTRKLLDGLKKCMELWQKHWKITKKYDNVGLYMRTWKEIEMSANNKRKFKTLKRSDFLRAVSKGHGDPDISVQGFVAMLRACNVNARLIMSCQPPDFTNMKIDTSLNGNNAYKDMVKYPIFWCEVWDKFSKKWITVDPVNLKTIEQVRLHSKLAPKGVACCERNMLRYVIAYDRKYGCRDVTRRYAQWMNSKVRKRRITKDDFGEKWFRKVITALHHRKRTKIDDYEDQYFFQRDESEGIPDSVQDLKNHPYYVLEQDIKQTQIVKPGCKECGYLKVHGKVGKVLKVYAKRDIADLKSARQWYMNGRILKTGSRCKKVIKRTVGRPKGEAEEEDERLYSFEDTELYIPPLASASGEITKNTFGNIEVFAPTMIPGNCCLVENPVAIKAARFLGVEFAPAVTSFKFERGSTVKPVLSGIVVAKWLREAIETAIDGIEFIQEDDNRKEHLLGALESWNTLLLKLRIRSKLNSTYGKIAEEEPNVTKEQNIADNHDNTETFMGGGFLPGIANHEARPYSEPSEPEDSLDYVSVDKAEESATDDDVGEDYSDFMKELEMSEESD", "T1 sequence (looked up) 2": "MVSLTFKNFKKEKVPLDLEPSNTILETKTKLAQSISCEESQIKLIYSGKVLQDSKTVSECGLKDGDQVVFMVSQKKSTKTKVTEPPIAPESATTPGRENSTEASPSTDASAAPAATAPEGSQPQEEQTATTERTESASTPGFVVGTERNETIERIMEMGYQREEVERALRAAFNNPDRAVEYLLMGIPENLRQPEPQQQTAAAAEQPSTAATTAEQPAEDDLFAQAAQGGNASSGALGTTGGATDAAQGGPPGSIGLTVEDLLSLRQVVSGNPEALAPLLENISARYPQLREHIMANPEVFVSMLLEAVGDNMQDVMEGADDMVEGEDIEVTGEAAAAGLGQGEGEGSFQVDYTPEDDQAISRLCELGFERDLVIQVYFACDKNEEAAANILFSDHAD", "experiment": "co-sedimentation; 10–40% glycerol gradient (20 mM HEPES, 150 mM potassium acetate, 2 mM magnesium acetate, 4 mM DTT, 2 mM ATP or AMP-PNP), 52,000 rpm 6 h 35 min, 4 °C; Rad4–Rad23–Rad33 pre-assembled on −24*/+24 AAF-DNA, then added to TFIIH; fractions by SDS-PAGE"}, "Rad4": {"target": "T2, Rad4 (yeast, UniProt P14736 1-754)", "T2 construct": "Rad4 (XPC homologue), yeast; Stood in the assays as part of Rad4–Rad23–Rad33; written alone for the contacts of the subunit; also called yeast homologue of XPC; source: Hi5 insect cells, co-expressed with Rad23, purified as the Rad4–Rad23 complex", "T2 sequence (looked up)": "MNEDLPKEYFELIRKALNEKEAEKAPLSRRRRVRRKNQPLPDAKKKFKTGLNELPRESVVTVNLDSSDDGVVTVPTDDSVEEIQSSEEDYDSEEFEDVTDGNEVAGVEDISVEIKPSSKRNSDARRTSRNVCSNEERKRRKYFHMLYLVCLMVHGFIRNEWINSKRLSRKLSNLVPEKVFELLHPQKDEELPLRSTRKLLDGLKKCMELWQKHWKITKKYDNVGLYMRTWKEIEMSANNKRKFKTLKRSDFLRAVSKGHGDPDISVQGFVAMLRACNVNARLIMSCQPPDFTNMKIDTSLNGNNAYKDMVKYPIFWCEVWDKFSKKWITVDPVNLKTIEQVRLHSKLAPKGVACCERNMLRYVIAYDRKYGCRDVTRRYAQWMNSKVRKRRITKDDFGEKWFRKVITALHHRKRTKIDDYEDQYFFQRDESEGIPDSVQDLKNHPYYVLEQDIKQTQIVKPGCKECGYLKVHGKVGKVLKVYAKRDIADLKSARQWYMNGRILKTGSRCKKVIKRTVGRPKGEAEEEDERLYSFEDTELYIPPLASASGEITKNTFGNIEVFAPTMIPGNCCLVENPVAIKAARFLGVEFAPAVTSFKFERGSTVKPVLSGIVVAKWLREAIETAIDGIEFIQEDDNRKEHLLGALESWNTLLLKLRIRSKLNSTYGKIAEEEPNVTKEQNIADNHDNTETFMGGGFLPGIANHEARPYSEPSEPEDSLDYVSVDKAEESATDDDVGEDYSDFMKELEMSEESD", "experiment": "cryo-EM structure; coreTFIIH and Rad4–Rad23–Rad33 on −24*/+24 AAF-DNA with ATP, glycerol gradient with glutaraldehyde; Map 1 3.86 Å (TFIIH), Map 2 9.2 Å, Map 3 7.9 Å; Rad4, Rad33 and the Tfb1 PH domain placed by rigid-body docking of known structures or homology models"}, "Ssl2": {"target": "T3, Ssl2 (Saccharomyces cerevisiae, UniProt Q00578 1-843)", "T3 construct": "Ssl2 (XPB homologue), subunit of yeast coreTFIIH; C-Ssl2 549–776, C-terminal region 771–843 as printed; Stood in the assays as part of coreTFIIH; also called yeast homologue of XPB; source: purified from yeast as a subunit of coreTFIIH", "T3 sequence (looked up)": "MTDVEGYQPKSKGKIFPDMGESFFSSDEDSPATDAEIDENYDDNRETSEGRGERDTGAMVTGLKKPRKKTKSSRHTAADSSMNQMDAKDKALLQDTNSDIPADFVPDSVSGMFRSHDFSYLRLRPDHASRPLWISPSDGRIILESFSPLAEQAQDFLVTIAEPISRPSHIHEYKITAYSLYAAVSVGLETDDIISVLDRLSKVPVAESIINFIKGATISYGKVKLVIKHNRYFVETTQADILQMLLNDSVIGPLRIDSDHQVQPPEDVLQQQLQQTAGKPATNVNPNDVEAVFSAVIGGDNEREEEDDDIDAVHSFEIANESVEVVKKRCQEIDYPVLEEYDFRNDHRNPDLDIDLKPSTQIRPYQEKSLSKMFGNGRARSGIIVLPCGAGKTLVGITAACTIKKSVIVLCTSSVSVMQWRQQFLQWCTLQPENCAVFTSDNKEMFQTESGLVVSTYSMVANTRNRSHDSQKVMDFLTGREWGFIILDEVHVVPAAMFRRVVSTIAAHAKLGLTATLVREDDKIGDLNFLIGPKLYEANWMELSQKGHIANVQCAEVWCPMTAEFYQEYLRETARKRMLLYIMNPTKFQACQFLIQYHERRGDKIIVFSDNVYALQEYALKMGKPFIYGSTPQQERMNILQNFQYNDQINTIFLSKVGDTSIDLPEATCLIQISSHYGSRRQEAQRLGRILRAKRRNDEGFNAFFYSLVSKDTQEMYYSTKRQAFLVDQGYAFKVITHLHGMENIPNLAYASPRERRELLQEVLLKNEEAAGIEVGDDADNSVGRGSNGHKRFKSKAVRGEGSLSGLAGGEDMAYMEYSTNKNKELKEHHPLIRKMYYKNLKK", "experiment": "cryo-EM structure; coreTFIIH and Rad4–Rad23–Rad33 on −24*/+24 AAF-DNA with ATP, glycerol gradient with glutaraldehyde; Map 1 3.86 Å (TFIIH), Map 2 9.2 Å, Map 3 7.9 Å; Rad4, Rad33 and the Tfb1 PH domain placed by rigid-body docking of known structures or homology models"}, "Tfb2": {"target": "T4, Tfb2 (yeast, UniProt Q02939 1-513)", "T4 construct": "Tfb2 (p52 homologue), subunit of yeast coreTFIIH; Tfb2C 412–513 as printed; Stood in the assays as part of coreTFIIH; also called yeast homologue of p52; source: purified from yeast as a subunit of coreTFIIH", "T4 sequence (looked up)": "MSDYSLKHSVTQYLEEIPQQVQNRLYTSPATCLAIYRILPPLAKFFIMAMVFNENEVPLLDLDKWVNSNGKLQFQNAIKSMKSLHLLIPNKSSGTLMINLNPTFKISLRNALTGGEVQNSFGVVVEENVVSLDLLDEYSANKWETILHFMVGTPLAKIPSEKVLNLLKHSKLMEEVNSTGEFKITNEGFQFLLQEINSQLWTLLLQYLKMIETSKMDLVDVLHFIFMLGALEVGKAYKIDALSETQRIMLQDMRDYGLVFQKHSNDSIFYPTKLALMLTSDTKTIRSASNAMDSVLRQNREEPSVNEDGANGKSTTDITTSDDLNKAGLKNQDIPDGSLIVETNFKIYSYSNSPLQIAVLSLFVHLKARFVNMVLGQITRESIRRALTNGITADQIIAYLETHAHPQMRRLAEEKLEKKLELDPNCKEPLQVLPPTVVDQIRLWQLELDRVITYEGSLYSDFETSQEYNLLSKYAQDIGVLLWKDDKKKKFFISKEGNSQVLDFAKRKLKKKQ", "experiment": "cryo-EM structure; coreTFIIH and Rad4–Rad23–Rad33 on −24*/+24 AAF-DNA with ATP, glycerol gradient with glutaraldehyde; Map 1 3.86 Å (TFIIH), Map 2 9.2 Å, Map 3 7.9 Å; Rad4, Rad33 and the Tfb1 PH domain placed by rigid-body docking of known structures or homology models"}}, "data": [{"binder": "B1", "values": [{"measurement": "binding result", "setting": "[1]", "result": "binds"}, {"measurement": "binding result", "setting": "Rad4", "result": "binds"}, {"measurement": "binding result", "setting": "Ssl2", "result": "binds"}]}, {"binder": "B2", "values": [{"measurement": "binding result", "setting": "Tfb2", "result": "binds"}]}]}
